The conditions of the series: Meleagris gallopavo; pH 8; Thermal; Activity; Tris 20 mM; NaCl 0.4 M; structure 2VT4.

Consider 17 substances from FireProtDB (doi:10.1073/pnas.0711253105).

Where “and” joins values, the source holds several entries; their conditions need not be identical. Identical values can stand only once.

Beta-1 adrenergic receptor R68S|M90V|V230A|F327A|A334L, P07700 R68S M90V V230A F327A A334L, sequence (P07700 whole entry R68S/M90V/V230A/F327A/A334L): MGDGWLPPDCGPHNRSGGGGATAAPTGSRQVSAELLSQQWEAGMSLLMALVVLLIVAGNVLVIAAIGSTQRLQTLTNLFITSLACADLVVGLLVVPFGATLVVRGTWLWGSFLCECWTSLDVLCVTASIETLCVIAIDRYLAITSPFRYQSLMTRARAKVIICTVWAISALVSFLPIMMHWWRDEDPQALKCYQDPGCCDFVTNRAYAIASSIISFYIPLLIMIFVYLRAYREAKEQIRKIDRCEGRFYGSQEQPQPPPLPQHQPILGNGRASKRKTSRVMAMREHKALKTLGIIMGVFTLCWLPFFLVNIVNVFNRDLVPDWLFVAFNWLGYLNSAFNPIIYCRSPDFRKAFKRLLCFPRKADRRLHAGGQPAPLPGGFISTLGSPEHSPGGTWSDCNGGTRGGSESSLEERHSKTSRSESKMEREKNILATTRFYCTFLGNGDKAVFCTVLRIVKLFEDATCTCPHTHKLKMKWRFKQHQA
Beta-1 adrenergic receptor R68S|M90V|Y227A|V230A|F327A|A334L, P07700 R68S M90V Y227A V230A F327A A334L, sequence (P07700 whole entry R68S/M90V/Y227A/V230A/F327A/A334L): as the sequence (P07700 whole entry R68S/M90V/V230A/F327A/A334L) above, with Y227A counted along it
Beta-1 adrenergic receptor R68S|M90V|Y227A|V230A|F327A|F338M, P07700 R68S M90V Y227A V230A F327A F338M, sequence (P07700 whole entry R68S/M90V/Y227A/V230A/F327A/F338M): as the sequence (P07700 whole entry R68S/M90V/V230A/F327A/A334L) above, with Y227A, L334A, F338M counted along it
Beta-1 adrenergic receptor R68S|M90V|V230A|A334L, P07700 R68S M90V V230A A334L, sequence (P07700 whole entry R68S/M90V/V230A/A334L): as the sequence (P07700 whole entry R68S/M90V/V230A/F327A/A334L) above, with A327F counted along it
Beta-1 adrenergic receptor R68S|A234L|A334L, P07700 R68S A234L A334L, sequence (P07700 whole entry R68S/A234L/A334L): as the sequence (P07700 whole entry R68S/M90V/V230A/F327A/A334L) above, with V90M, A230V, A234L, A327F counted along it
Beta-1 adrenergic receptor G67A|G98A|V230A, P07700 G67A G98A V230A, sequence (P07700 whole entry G67A/G98A/V230A): as the sequence (P07700 whole entry R68S/M90V/V230A/F327A/A334L) above, with G67A, S68R, V90M, G98A, A327F, L334A counted along it
Beta-1 adrenergic receptor G98A|D322A, P07700 G98A D322A, sequence (P07700 whole entry G98A/D322A): as the sequence (P07700 whole entry R68S/M90V/V230A/F327A/A334L) above, with S68R, V90M, G98A, A230V, D322A, A327F, L334A counted along it
Beta-1 adrenergic receptor G67A|G98A, P07700 G67A G98A, sequence (P07700 whole entry G67A/G98A): as the sequence (P07700 whole entry R68S/M90V/V230A/F327A/A334L) above, with G67A, S68R, V90M, G98A, A230V, A327F, L334A counted along it
Beta-1 adrenergic receptor M90V|Y227A, P07700 M90V Y227A, sequence (P07700 whole entry M90V/Y227A): as the sequence (P07700 whole entry R68S/M90V/V230A/F327A/A334L) above, with S68R, Y227A, A230V, A327F, L334A counted along it
Beta-1 adrenergic receptor G67A|G98A|V230A|D322A, P07700 G67A G98A V230A D322A, sequence (P07700 whole entry G67A/G98A/V230A/D322A): as the sequence (P07700 whole entry R68S/M90V/V230A/F327A/A334L) above, with G67A, S68R, V90M, G98A, D322A, A327F, L334A counted along it
Beta-1 adrenergic receptor R68S|Y227A|A234L|A334L, P07700 R68S Y227A A234L A334L, sequence (P07700 whole entry R68S/Y227A/A234L/A334L): as the sequence (P07700 whole entry R68S/M90V/V230A/F327A/A334L) above, with V90M, Y227A, A230V, A234L, A327F counted along it
Beta-1 adrenergic receptor Y227A|A234L|A334L, P07700 Y227A A234L A334L, sequence (P07700 whole entry Y227A/A234L/A334L): as the sequence (P07700 whole entry R68S/M90V/V230A/F327A/A334L) above, with S68R, V90M, Y227A, A230V, A234L, A327F counted along it
Beta-1 adrenergic receptor R68S|A334L, P07700 R68S A334L, sequence (P07700 whole entry R68S/A334L): as the sequence (P07700 whole entry R68S/M90V/V230A/F327A/A334L) above, with V90M, A230V, A327F counted along it
Beta-1 adrenergic receptor M90V|I129V, P07700 M90V I129V, sequence (P07700 whole entry M90V/I129V): as the sequence (P07700 whole entry R68S/M90V/V230A/F327A/A334L) above, with S68R, I129V, A230V, A327F, L334A counted along it
Beta-1 adrenergic receptor M90V|Y227A|F338M, P07700 M90V Y227A F338M, sequence (P07700 whole entry M90V/Y227A/F338M): as the sequence (P07700 whole entry R68S/M90V/V230A/F327A/A334L) above, with S68R, Y227A, A230V, A327F, L334A, F338M counted along it
Beta-1 adrenergic receptor M90V|F338M, P07700 M90V F338M, sequence (P07700 whole entry M90V/F338M): as the sequence (P07700 whole entry R68S/M90V/V230A/F327A/A334L) above, with S68R, A230V, A327F, L334A, F338M counted along it
Beta-1 adrenergic receptor R68S|Y227A|A234L|A282L, P07700 R68S Y227A A234L A282L, sequence (P07700 whole entry R68S/Y227A/A234L/A282L): as the sequence (P07700 whole entry R68S/M90V/V230A/F327A/A334L) above, with V90M, Y227A, A230V, A234L, A282L, A327F, L334A counted along it

As for “Beta-1 adrenergic receptor R68S|M90V|V230A|A334L, P07700 R68S M90V V230A A334L”, the Tm (in general, the temperature at which the thermal transition is half complete) turned out to be 46.9 °C and the “change of melting temperature, mutant - wild type (higher = more stable)” value (“change of melting temperature, mutant” for short) was found to be 15.2 °C.
Consider “Beta-1 adrenergic receptor M90V|Y227A|F338M, P07700 M90V Y227A F338M”, for which the midpoint of thermal melting (Tm) came out at 45.2 °C and the “change of melting temperature, mutant” value came to 13.5 °C.
On to “Beta-1 adrenergic receptor R68S|Y227A|A234L|A282L, P07700 R68S Y227A A234L A282L”, for which the Tm was found to be 41.6 °C and the “change of melting temperature, mutant” value stood at 9.9 °C.
As for “Beta-1 adrenergic receptor R68S|A234L|A334L, P07700 R68S A234L A334L”, the Tm was found to be 41.9 °C and the “change of melting temperature, mutant” value worked out at 10.2 °C.
For “Beta-1 adrenergic receptor G67A|G98A|V230A, P07700 G67A G98A V230A”, in that order: 38 °C and 6.3 °C.
For “Beta-1 adrenergic receptor Y227A|A234L|A334L, P07700 Y227A A234L A334L”, in that order: 41.6 °C and 9.9 °C.
With “Beta-1 adrenergic receptor R68S|Y227A|A234L|A334L, P07700 R68S Y227A A234L A334L”, the Tm is 43.7 °C and the “change of melting temperature, mutant” value was determined as 12 °C.
Turning to “Beta-1 adrenergic receptor R68S|M90V|Y227A|V230A|F327A|A334L, P07700 R68S M90V Y227A V230A F327A A334L”, the Tm amounted to 48.2 °C and the “change of melting temperature, mutant” value was 16.5 °C.
In the same order, the values of “Beta-1 adrenergic receptor G67A|G98A, P07700 G67A G98A” are 35.5 °C and 3.8 °C.
In the same order, the values of “Beta-1 adrenergic receptor M90V|I129V, P07700 M90V I129V” are 40 °C and 8.3 °C.
For “Beta-1 adrenergic receptor G98A|D322A, P07700 G98A D322A”, in that order: 35 °C and 3.3 °C.
With “Beta-1 adrenergic receptor R68S|M90V|V230A|F327A|A334L, P07700 R68S M90V V230A F327A A334L”, the Tm was 47.3 °C and 48.4 °C; the “change of melting temperature, mutant” value was 15.6 °C and 16.7 °C.
On to “Beta-1 adrenergic receptor M90V|Y227A, P07700 M90V Y227A”, for which the Tm amounted to 45.2 °C and the “change of melting temperature, mutant” value turned out to be 13.5 °C.
In the same order, the values of “Beta-1 adrenergic receptor G67A|G98A|V230A|D322A, P07700 G67A G98A V230A D322A” are 40.9 °C and 9.2 °C.
For “Beta-1 adrenergic receptor M90V|F338M, P07700 M90V F338M”, in that order: 43 °C and 11.3 °C.
For “Beta-1 adrenergic receptor R68S|A334L, P07700 R68S A334L”, in that order: 39.1 °C and 7.4 °C.
Regarding “Beta-1 adrenergic receptor R68S|M90V|Y227A|V230A|F327A|F338M, P07700 R68S M90V Y227A V230A F327A F338M”, the Tm came out at 49 °C and the “change of melting temperature, mutant” value turned out to be 17.3 °C.
